The test system of series [1] is T1, O=c1[nH]c(=O)c2[nH]c(=O)[nH]c2[nH]1.
T1 construct: full-length wild type, 650 aa, C-terminal EGFP tag (pEGFP-N1), transiently expressed in HEK293 cells
Nature of the series: cells, lysate or membranes. The format is cell-based, Homo sapiens. The conditions noted are these: pH 10, Na+ Krebs-Ringer buffer, 37 °C, 5 min, 0-3 mM urate (not saturated), labelled compound.

Series [2] concerns T2, O=c1[nH]c(=O)c2[nH]c(=O)[nH]c2[nH]1.
T2 construct: full-length, 648 aa, C-terminal EGFP tag (pEGFP-N1), transiently expressed in HEK293 cells
The experiment in a line: cells, lysate or membranes. The format is cell-based, Mus musculus. To be noted: pH 10, Na+ Krebs-Ringer buffer, 37 °C, 5 min, 0-3 mM urate (not saturated), labelled compound.

In general, Km refers to the substrate concentration at which the rate is half of its maximum. Take “human SVCT2 (SVCT2/SLC23A2) (Homo sapiens)”: the Km in series [1] is reported as 3.86 mM.

Regarding “mouse Svct2 (Svct2/Slc23a2) (Mus musculus)”, in series [2], the Michaelis-Menten constant (Km) is on record as 3.16 mM.
